Laboratory results: PMC3285515

Molecular target: HSV-1 glycoprotein D (gD), wild type, on KOS/tk12 virions (HSV-1 (strain KOS)) (UniProt A1Z0Q5)
UniProt A1Z0Q5, sequence (A1Z0Q5 26-394): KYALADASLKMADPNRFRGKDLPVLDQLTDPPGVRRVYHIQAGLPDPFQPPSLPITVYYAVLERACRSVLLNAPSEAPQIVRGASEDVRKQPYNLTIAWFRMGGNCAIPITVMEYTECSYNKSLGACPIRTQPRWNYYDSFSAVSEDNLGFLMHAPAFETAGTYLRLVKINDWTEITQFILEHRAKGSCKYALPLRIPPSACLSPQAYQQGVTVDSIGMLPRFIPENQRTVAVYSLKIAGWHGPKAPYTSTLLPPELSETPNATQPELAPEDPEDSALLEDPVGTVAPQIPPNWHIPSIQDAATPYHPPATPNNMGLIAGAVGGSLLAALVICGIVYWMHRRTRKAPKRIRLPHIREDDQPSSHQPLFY

Substance: sHA102, soluble HVEM (HveA) protein containing the first two cysteine-rich pseudorepeats (N-terminal 102 amino acids of HVEM) (domain or fragment)
- sHA102-mediated KOS/tk12 infection of receptor-deficient CHO-K1 cells; sHA102 0-1,000 nM, MOI 3 and 9; ONPG assay and X-gal staining (percent of cells infected) (% of the cells infected): 90 to 100
